From publication PMC4447274, “Gene Regulation by the LiaSR Two-Component System in Streptococcus mutans” (PLoS ONE, 2015)
Positions count from the first letter of the chain named. Names may count otherwise.

Assays:
[1] = target: T1, His-LiaR (Streptococcus mutans UA159) (UniProt Q8DVJ8); test: EMSA; conditions: 20 mM Tris-Cl pH 7.5, 100 mM NaCl, 0.01 mM DTT, 5% glycerol, 1 mM EDTA, 0.01 mg/ml BSA, 5 mM MgCl2, 10 ug/ml poly(dI-dC), 30 min (EMSA); BLI in binding buffer …
T1 sequence: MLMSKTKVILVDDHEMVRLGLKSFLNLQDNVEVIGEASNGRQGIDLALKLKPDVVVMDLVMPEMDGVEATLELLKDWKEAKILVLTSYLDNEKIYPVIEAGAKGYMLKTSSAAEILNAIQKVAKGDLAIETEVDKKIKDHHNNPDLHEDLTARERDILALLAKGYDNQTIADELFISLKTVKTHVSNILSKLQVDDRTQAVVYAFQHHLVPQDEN

LiaR = target: T2, LiaR (Streptococcus mutans, UniProt Q8DVJ8); test: Phos-Tag SDS-PAGE mobility shift (phosphorylation of LiaR); format: biochemical; conditions: 20 mM MnCl2, 50 mM Tris-Cl, 50 mM KCl, 1 mM DTT, pH 7.5, 37 °C, 1 h, phosphodonor, covalent phosphorylation
T2 construct: gene SMU_487; ORF from start codon, N-terminal His tag, E. coli BL21, Ni-NTA (pASK-IBA43+, pIBE11)

[2] = target: T3, His-LiaR-D58A D58A (Streptococcus mutans UA159) (UniProt Q8DVJ8); test: EMSA; conditions: 20 mM Tris-Cl pH 7.5, 100 mM NaCl, 0.01 mM DTT, 5% glycerol, 1 mM EDTA, 0.01 mg/ml BSA, 5 mM MgCl2, 10 ug/ml poly(dI-dC), 30 min (EMSA); BLI in binding buffer …
T3 sequence: T1 sequence with D58A

[3] = target: T1, His-LiaR (Streptococcus mutans UA159); test: competition; conditions: 20 mM Tris-Cl pH 7.5, 100 mM NaCl, 0.01 mM DTT, 5% glycerol, 1 mM EDTA, 0.01 mg/ml BSA, 5 mM MgCl2, 10 ug/ml poly(dI-dC), 30 min (EMSA); BLI in binding buffer …
His-LiaR [4] = target: T4, His-LiaR (Streptococcus mutans UA159, UniProt Q8DVJ8 1-215); test: BLI; 1 uM LiaR; Req reduced 3-fold; 20 mM Tris-Cl pH 7.5, 100 mM NaCl, 0.01 mM DTT, 5% glycerol, 1 mM EDTA, 0.01 mg/ml BSA, 5 mM MgCl2, 10 ug/ml poly(dI-dC), 30 min (EMSA); BLI in binding buffer; conditions: protein: recombinant; tags: N-terminal His; chain copies: 2; label: 32P end label (EMSA); 3' biotin on one strand (BLI)
His-LiaR [5] = target: T4, His-LiaR; test: BLI; 1 uM LiaR; 20 mM Tris-Cl pH 7.5, 100 mM NaCl, 0.01 mM DTT, 5% glycerol, 1 mM EDTA, 0.01 mg/ml BSA, 5 mM MgCl2, 10 ug/ml poly(dI-dC), 30 min (EMSA); BLI in binding buffer; conditions: protein: recombinant; tags: N-terminal His; chain copies: 2; label: 32P end label (EMSA); 3' biotin on one strand (BLI)
His-LiaR [6] = target: T4, His-LiaR; test: EMSA; 15-30 pmol LiaR; 20 mM Tris-Cl pH 7.5, 100 mM NaCl, 0.01 mM DTT, 5% glycerol, 1 mM EDTA, 0.01 mg/ml BSA, 5 mM MgCl2, 10 ug/ml poly(dI-dC), 30 min (EMSA); BLI in binding buffer; conditions: protein: recombinant; tags: N-terminal His; chain copies: 2; label: 32P end label

CTTGTTTGAAGAGATAACTTTTTTGTTATCAAACTTGTATCCGTCTAGGATTAAGACTGTATAAGATTGATGTATGATAACTAAGCTATGGCGTCTTTGATATTTGAAAAATTCTCTTTATCTTTAGTGTTATTTGGTCTAGATCAAGAGGTGAAATTTATCCTAAATTTTGATACAATGACTAATAATTGTAGAACTGAAGGAAGCCTTATG (double strand) [Alternative PSMU.485]
binding [1]: no binding

CC(=O)OP(=O)(O)O [Ac-Po4, acetyl phosphate]
Phos-Tag SDS-PAGE mobility shift (phosphorylation of LiaR) (LiaR; 50 mM acetyl phosphate): The wild-type protein readily acquired phosphate from both acetyl phosphate and phosphoamidate

AGCTTAGTTATCATACATCAATCTTATACAGTCTTAATCCTAGACGGATACAAGTTTGATAACAAAAAAGTTATCTCTTCAAACAAGGAGGCTGAGGCAAGAACCTTAAACTTATAAATATAATAACTACAACATATGAGTATACCTGCATTAGATAACATTATTATCAACAGATCATAAACATAACTTGAATTGACATG (double strand) [PSMU.485 (Plia)]
binding [1]: no binding

NP(=O)(O)O [PA, phosphoamidate]
Phos-Tag SDS-PAGE mobility shift (phosphorylation of LiaR) (LiaR; 20 mM phosphoamidate): The wild-type protein readily acquired phosphate from both acetyl phosphate and phosphoamidate

GTTTATTCAAGAAATTCGCAAAGGTCCATCTCCTTTTTCTAAAGTCACTTATGTTGACGTCAATATAGCAAATTTTTCTGATTACCATGATTTCAGAATGGCCAATTAATTTATCTCAAAATCATTCTCAAGAACTATTGAGTATTTTACTAAAAAACAGTAAAATAGATAGGTATTATTAAAATCAAAGGAAGATTATC (double strand) [PSMU.1727]
binding [1]: binds

CCTAAGTCCACCTCCCATCTTTAATCAATAGAGTTAGCACTCTTAACAGACGACTGCTAACTTCATAATTCCATTATACTCCATTCCTAATTTCTGTCAAGAGAAAAATACAAAAAATTAGCACTCTTTCTGCTTGAGTGCTAAAAATCCGACTTAAGACTTAGTTTTATTGCTGT (double strand) [PhrcA]
binding [1]: binds

ATTACCAATGTGAATCGTGTGGTCAAGTTTATCAAAGAAAAAGACGAATGAATACGAAAAAATACGCTTGTGGCAACTGCCATGGAAAATTAAGACATCAAAATCAGTCGTAAGGCTGATTTTATTCTTCTCTAAATAGTTTATACTAATAGCATCATGAGATTTGTGATTCATTTTTTAAAAAAGGGAGAGTTGTTTGT (double strand) [PSMU.753]
binding [1]: binds

TTAATTGAGGAAGATAATACTGAAGAAAAACAGTCTTCTAAAGAAAAAGAAACTGATGAGAAAGCTGACAAAAACCTTGTTTTAGAGCTGGATGATACAATTGAGCTTGAAGATTAAATAAAAATAGGTCCCAAGACCGACTCTTTATTTAATAAGCTATGCTAAGATAATATTATCCTGTAAGGAAAGAGAGATTTAAAC (double strand) [PSMU.2084]
binding [1]: binds | binding [2]: no binding | binding [3]: binds

B1: C13A/A17G consensus (dsDNA)
DNA 1: ATCAAAATCAGTATCAGGACCGATT
DNA 2: AATCGGTCCTGATACTGATTTTGAT
binding signal (His-LiaR [4]): ~4 fold reduction of Rmax vs consensus

B2: A23G/T25C consensus (dsDNA)
DNA 1: ATCAAAATCAGTCTCAAGACCGGTC
DNA 2: GACCGGTCTTGAGACTGATTTTGAT
binding signal (His-LiaR [5]): ~1.5 fold reduction of Rmax and Req vs consensus

B3: IR only (16-bp) (dsDNA)
DNA 1: TCAGTCTCAAGACCGATT
DNA 2: AATCGGTCTTGAGACTGA
binding result (His-LiaR [6]): no binding
